In paper PMC10350818 (The EMBO Journal, 2023):

How the values were obtained:
Experiment in all cases: pull-down; GST pull-down with purified GST or GST-p37 as bait, p97 variants and SPI or SPI variant, in the presence of ATP; Western blot
Details in all cases: both partners purified
[1] = biological target: T1, His-tagged p97 (from bacteria), wild type (human, UniProt P55072 2-806)
T1 construct: p97 (VCP), human; Wild-type p97 of the GST pull-down assays; also called VCP; source: generated in bacteria, purified
T1 sequence (P55072 2-806): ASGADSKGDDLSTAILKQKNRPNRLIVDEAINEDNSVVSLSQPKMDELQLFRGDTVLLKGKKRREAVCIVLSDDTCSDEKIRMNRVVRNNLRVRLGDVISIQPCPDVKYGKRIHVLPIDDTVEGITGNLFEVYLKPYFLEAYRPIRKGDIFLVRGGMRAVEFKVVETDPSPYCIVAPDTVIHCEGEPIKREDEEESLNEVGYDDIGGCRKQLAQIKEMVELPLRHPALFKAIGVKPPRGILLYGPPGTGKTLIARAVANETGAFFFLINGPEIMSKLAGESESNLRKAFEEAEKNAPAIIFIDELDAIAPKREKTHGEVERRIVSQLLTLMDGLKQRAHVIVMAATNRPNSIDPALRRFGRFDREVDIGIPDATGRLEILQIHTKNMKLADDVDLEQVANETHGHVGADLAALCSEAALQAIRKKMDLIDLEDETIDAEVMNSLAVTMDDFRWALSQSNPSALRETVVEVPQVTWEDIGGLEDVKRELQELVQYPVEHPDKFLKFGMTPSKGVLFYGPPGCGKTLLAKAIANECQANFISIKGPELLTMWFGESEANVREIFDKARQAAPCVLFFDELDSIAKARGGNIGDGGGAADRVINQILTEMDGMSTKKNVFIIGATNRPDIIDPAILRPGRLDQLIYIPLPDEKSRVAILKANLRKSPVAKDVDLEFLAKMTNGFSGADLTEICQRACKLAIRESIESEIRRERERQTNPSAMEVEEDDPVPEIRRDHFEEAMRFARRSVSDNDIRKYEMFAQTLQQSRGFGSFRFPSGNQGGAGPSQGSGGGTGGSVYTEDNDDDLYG

His-tagged p97 G54K = biological target: T2, His-tagged p97 G54K (human, UniProt P55072 2-806, G54K)
T2 construct: p97 (VCP), human, point mutation in the N-domain groove; source: generated in bacteria, purified
T2 sequence (P55072 2-806 G54K): as the sequence (P55072 2-806) above, with G53K counted along it

His-tagged p97 Y143A = biological target: T3, His-tagged p97 Y143A (human, UniProt P55072 2-806, Y143A)
T3 construct: p97 (VCP), human, point mutation in the N-domain groove; source: generated in bacteria, purified
T3 sequence (P55072 2-806 Y143A): as the sequence (P55072 2-806) above, with Y142A counted along it

Measured: binding result

B1: GST-p37 (natural protein, human, UniProt Q14CS0 1-331, looked up)
chain: MAEGGGPEPGEQERRSSGPRPPSARDLQLALAELYEDEVKCKSSKSNRPKATVFKSPRTPPQRFYSSEHEYSGLNIVRPSTGKIVNELFKEAREHGAVPLNEATRASGDDKSKSFTGGGYRLGSSFCKRSEYIYGENQLQDVQILLKLWSNGFSLDDGELRPYNEPTNAQFLESVKRGEIPLELQRLVHGGQVNLDMEDHQDQEYIKPRLRFKAFSGEGQKLGSLTPEIVSTPSSPEEEDKSILNAVVLIDDSVPTTKIQIRLADGSRLIQRFNSTHRILDVRNFIVQSRPEFAALDFILVTSFPNKELTDESLTLLEADILNTVLLQQLK
notes: Bait of the GST pull-down assays; source: generated in bacteria, purified
binds: all assays above
